Reference: US20220041718A1 (AUTOLUS, published 2022)
Substitutions are numbered along the chain they refer to. Numbers in names are those of the source.

B1: hJovi-1 variant IgG, VH T28K, Y32F, A100N; VL unmutated (antibody, V domains shown)
VH: QVQLVQSGAEVKKPGASVKVSCKASGYKFTGFVMHWVRQAPGQGLEWMGFINPYNDDIQSNERFRGRVTMTRDTSISTAYMELSRLRSDDTAVYYCARGNGYNFDGAYRFFDFWGQGTMVTVSS
VL: DIVMTQSPLSLPVTPGEPASISCRSSQRLVHSNGNTYLHWYLQKPGQSPRLLIYRVSNRFPGVPDRFSGSGSGTDFTLKISRVEAEDVGVYYCSQSTHVPYTFGQGTKLEIK
notes: IgG format; also called anti-TRBC2 triple mutant
B2: hJovi-1 variant IgG, VH T28K, Y32F, A100N, N103W; VL unmutated (antibody, V domains shown)
VH: B1 VH with N103W
VL: B1 VL
notes: IgG format
B3: hJovi-1 variant IgG, VH T28K, Y32F, A100N, N103Y; VL unmutated (antibody, V domains shown)
VH: B1 VH with N103Y
VL: B1 VL
notes: IgG format
B4: hJovi-1 variant IgG, VH N103W, T28K, Y32F, A100N; VL N35F (antibody, V domains shown)
VH: B1 VH with N103W
VL: B1 VL with N35F
notes: IgG format
B5: hJovi-1 variant IgG, VH T28K, Y32F, A100N, N103H; VL unmutated (antibody, V domains shown)
VH: B1 VH with N103H
VL: B1 VL
notes: IgG format
B6: hJovi-1 variant IgG, VH T28K, Y32F, A100N, N103S; VL unmutated (antibody, V domains shown)
VH: B1 VH with N103S
VL: B1 VL
notes: IgG format
B7: hJovi-1 variant IgG, VH N103L, T28K, Y32F, A100N; VL N35Y (antibody, V domains shown)
VH: B1 VH with N103L
VL: B1 VL with N35Y
notes: IgG format
B8: hJovi-1 variant IgG, VH N103E, T28K, Y32F, A100N; VL N35M (antibody, V domains shown)
VH: B1 VH with N103E
VL: B1 VL with N35M
notes: IgG format
B9: hJovi-1 variant IgG, VH T28K, Y32F, A100N, N103F; VL N35K (antibody, V domains shown)
VH: B1 VH with N103F
VL: B1 VL with N35K
notes: IgG format
B10: hJovi-1 variant IgG, VH N103F, T28K, Y32F, A100N; VL N35F (antibody, V domains shown)
VH: B1 VH with N103F
VL: B1 VL with N35F
notes: IgG format
B11: hJovi-1 variant IgG, VH N103L, T28K, Y32F, A100N; VL N35M (antibody, V domains shown)
VH: B1 VH with N103L
VL: B1 VL with N35M
notes: IgG format
B12: hJovi-1 variant IgG, VH T28K, Y32F, A100N, N103L; VL unmutated (antibody, V domains shown)
VH: B1 VH with N103L
VL: B1 VL
notes: IgG format
B13: hJovi-1 variant IgG, VH T28K, Y32F, A100N, N103M; VL N35Y (antibody, V domains shown)
VH: B1 VH with N103M
VL: B1 VL with N35Y
notes: IgG format
B14: hJovi-1 variant IgG, VH N103W, T28K, Y32F, A100N; VL N35R (antibody, V domains shown)
VH: B1 VH with N103W
VL: B1 VL with N35R
notes: IgG format
B15: hJovi-1 variant IgG, VH T28K, Y32F, A100N, N103M; VL N35M (antibody, V domains shown)
VH: B1 VH with N103M
VL: B1 VL with N35M
notes: IgG format
B16: hJovi-1 variant IgG, VH T28K, Y32F, A100N, N103A; VL unmutated (antibody, V domains shown)
VH: B1 VH with N103A
VL: B1 VL
notes: IgG format
B17: hJovi-1 variant IgG, VH N103L, T28K, Y32F, A100N; VL N35K (antibody, V domains shown)
VH: B1 VH with N103L
VL: B1 VL with N35K
notes: IgG format
B18: hJovi-1 variant IgG, VH N103S, T28K, Y32F, A100N; VL N35Y (antibody, V domains shown)
VH: B1 VH with N103S
VL: B1 VL with N35Y
notes: IgG format
B19: hJovi-1 variant IgG, VH N103M, T28K, Y32F, A100N; VL N35F (antibody, V domains shown)
VH: B1 VH with N103M
VL: B1 VL with N35F
notes: IgG format
B20: hJovi-1 variant IgG, VH N103S, T28K, Y32F, A100N; VL N35R (antibody, V domains shown)
VH: B1 VH with N103S
VL: B1 VL with N35R
notes: IgG format
B21: hJovi-1 variant IgG, VH T28K, Y32F, A100N, N103E; VL unmutated (antibody, V domains shown)
VH: B1 VH with N103E
VL: B1 VL
notes: IgG format
B22: hJovi-1 variant IgG, VH N103L, T28K, Y32F, A100N; VL N35F (antibody, V domains shown)
VH: B1 VH with N103L
VL: B1 VL with N35F
notes: IgG format
B23: hJovi-1 variant IgG, VH T28K, G31R, Y32F, A100N; VL unmutated (antibody, V domains shown)
VH: B1 VH with G31R
VL: B1 VL
notes: IgG format
B24: hJovi-1 variant IgG, VH T28K, Y32F, A100N, Y102F, N103M; VL N35F (antibody, V domains shown)
VH: B1 VH with Y102F, N103M
VL: B1 VL with N35F
notes: IgG format
B25: hJovi-1 variant IgG, VH N103W, T28K, Y32F, A100N; VL N35K (antibody, V domains shown)
VH: B1 VH with N103W
VL: B1 VL with N35K
notes: IgG format
B26: hJovi-1 variant IgG, VH N103W, T28K, Y32F, A100N; VL N35M (antibody, V domains shown)
VH: B1 VH with N103W
VL: B1 VL with N35M
notes: IgG format
B27: hJovi-1 variant IgG, VH T28K, Y32F, A100N, A107S; VL unmutated (antibody, V domains shown)
VH: B1 VH with A107S
VL: B1 VL
notes: IgG format
B28: hJovi-1 variant IgG, VH N103F, T28K, Y32F, A100N; VL N35Y (antibody, V domains shown)
VH: B1 VH with N103F
VL: B1 VL with N35Y
notes: IgG format
B29: hJovi-1 variant IgG, VH T28K Y32F A100N; VL R55K (antibody, V domains shown)
VH: B1 VH
VL: B1 VL with R55K
notes: IgG format
B30: hJovi-1 variant IgG, VH T28K, Y32F, A100N, N103F; VL unmutated (antibody, V domains shown)
VH: B1 VH with N103F
VL: B1 VL
notes: IgG format
B31: hJovi-1 variant IgG, VH T28K, Y32F, A100N, N103M; VL N35R (antibody, V domains shown)
VH: B1 VH with N103M
VL: B1 VL with N35R
notes: IgG format
B32: hJovi-1 variant IgG, VH N103S, T28K, Y32F, A100N; VL N35K (antibody, V domains shown)
VH: B1 VH with N103S
VL: B1 VL with N35K
notes: IgG format
B33: hJovi-1 variant IgG, VH N103F, T28K, Y32F, A100N; VL N35M (antibody, V domains shown)
VH: B1 VH with N103F
VL: B1 VL with N35M
notes: IgG format
B34: hJovi-1 variant IgG, VH N103L, T28K, Y32F, A100N; VL N35R (antibody, V domains shown)
VH: B1 VH with N103L
VL: B1 VL with N35R
notes: IgG format
B35: hJovi-1 variant IgG, VH G31S, T28K, Y32F, A100N; VL unmutated (antibody, V domains shown)
VH: B1 VH with G31S
VL: B1 VL
notes: IgG format
B36: hJovi-1 variant IgG, VH G31R, Y32F, A100N; VL unmutated (antibody, V domains shown)
VH: B1 VH with K28T, G31R
VL: B1 VL
notes: IgG format
B37: hJovi-1 variant IgG, VH N103S, T28K, Y32F, A100N; VL N35F (antibody, V domains shown)
VH: B1 VH with N103S
VL: B1 VL with N35F
notes: IgG format
B38: hJovi-1 variant IgG, VH T28K, Y32F, A100N, N103Q; VL unmutated (antibody, V domains shown)
VH: B1 VH with N103Q
VL: B1 VL
notes: IgG format
B39: hJovi-1 variant IgG, VH T28K, Y32F, A100N, N103M; VL unmutated (antibody, V domains shown)
VH: B1 VH with N103M
VL: B1 VL
notes: IgG format
B40: hJovi-1 variant IgG, VH N103S, T28K, Y32F, A100N; VL N35M (antibody, V domains shown)
VH: B1 VH with N103S
VL: B1 VL with N35M
notes: IgG format

molecular target: T1, Recombinant purified TRBC1 (human, UniProt P01850 1-129, limits assumed); assay: SPR, IgG captured on anti-human Fc, TRBC1 as analyte
T1 construct: Construct not described (may be a soluble TCR carrying TRBC1); also called TCR beta constant region 1; soluble recombinant biotinylated TRBC1
Text: (§1) A series S CM5 sensor chip was immobilised via amine coupling, with an anti-human Fc capture antibody to a density of 9000-10000 RU, using a Biacore T200 instrument. HBS-P+ buffer was used as running buffer in all experimental conditions. The test anti-TRBC2 antibodies (Table 1) were captured on flow cells 2, 3 and 4 to a density of 100-300 RU. Recombinant purified TRBC1 or TRBC2 at known concentrations were used as the ‘analyte’ and injected over the respective flow cells with 150s contact time and 300s dissociation at 30 μl/minute of flow rate. In each experiment, flow cell 1 was unmodified and used for reference subtraction. A ‘0 concentration’ sensorgram of buffer alone was used as a double reference subtraction to factor for drift. Data were fit to a 1:1 Langmuir binding model. Since a capture system was used, a local Rₘₐₓ parameter was used for the data fitting in each case.

T1 sequence (P01850 1-129 limits assumed): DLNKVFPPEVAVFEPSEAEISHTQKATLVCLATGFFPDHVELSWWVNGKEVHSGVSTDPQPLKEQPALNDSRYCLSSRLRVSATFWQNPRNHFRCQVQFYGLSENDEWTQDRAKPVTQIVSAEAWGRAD

| Kd [nM] | Binder |
| --- | --- |
| 2730 | B1 |
| 1650 | B2 |
| 1580 | B3 |
| 1680 | B4 |
| 2020 | B5 |
| 3540 | B6 |
| 1930 | B7 |
| 5830 | B8 |
| 881 | B9 |
| 1610 | B10 |
| 1500 | B11 |
| 1280 | B12 |
| 733 | B13 |
| 1730 | B14 |
| 648 | B15 |
| 3390 | B16 |
| 707 | B17 |
| 7830 | B18 |
| 459 | B19 |
| 3930 | B20 |

| Kd [nM] | Binder |
| --- | --- |
| 2930 | B21 |
| 1380 | B22 |
| 17400 | B23 |
| 11300 | B24 |
| 1680 | B25 |
| 2280 | B26 |
| 3590 | B27 |
| 1860 | B28 |
| 962 | B29 |
| 1060 | B30 |
| 290 | B31 |
| 3680 | B32 |
| 459 | B33 |
| 810 | B34 |
| 3680 | B35 |
| 3140 | B36 |
| 6580 | B37 |
| 1770 | B38 |
| 376 | B39 |
| 8220 | B40 |

molecular target: T2, Recombinant purified TRBC2 (human, UniProt A0A5B9 1-129, limits assumed); assay: SPR, IgG captured on anti-human Fc, TRBC2 as analyte
T2 construct: Construct not described (may be a soluble TCR carrying TRBC2); also called TCR beta constant region 2; soluble recombinant biotinylated TRBC2
Text: as §1

T2 sequence (A0A5B9 1-129 limits assumed): as the sequence (P01850 1-129 limits assumed) above, with N3K, K4N, E9K, F36Y counted along it

| Kd [nM] | Binder |
| --- | --- |
| 432 | B1 |
| 425 | B2 |
| 339 | B3 |
| 510 | B4 |
| 416 | B5 |
| 983 | B6 |
| 480 | B7 |
| 2130 | B8 |
| 294 | B9 |
| 459 | B10 |
| 364 | B11 |
| 302 | B12 |
| 172 | B13 |
| 390 | B14 |
| 131 | B15 |
| 714 | B16 |
| 187 | B17 |
| 1880 | B18 |
| 130 | B19 |
| 917 | B20 |

| Kd [nM] | Binder |
| --- | --- |
| 1300 | B21 |
| 369 | B22 |
| 4950 | B23 |
| 1320 | B24 |
| 417 | B25 |
| 611 | B26 |
| 1160 | B27 |
| 501 | B28 |
| 165 | B29 |
| 270 | B30 |
| 90.3 | B31 |
| 851 | B32 |
| 130 | B33 |
| 201 | B34 |
| 1170 | B35 |
| 1360 | B36 |
| 1560 | B37 |
| 484 | B38 |
| 83.6 | B39 |
| 1830 | B40 |
